Our source for the self-cleavage values is the RNAGym collection of RNA variant scans (doi:10.7554/elife.80360).

B1: Hairpin Ribozyme (parent)
chain: GUCCUCUUUCACGUGCGCGUGAAAGAGAGAAGUGAACCAGAGAAACACACGUUGUGGUAUAUUACCUGGUA

In this data set the parent is B1. In words: self-cleavage, relative activity (ratio to wild type); higher = more cleavage; co-transcriptional.
GUUCUCUUUCACGUGCGCGAGAAAGAGAGAAGUGAACCAGAGAAACACACGUUGUGGUAUAUUACCUGGUA: the self-cleavage stood at 0.374.

Regarding GUUCUCUUUCACGUGCGCGUGAAAGAGAGAAGUGAACCAAAGAAACACACGUUGUGGUAUAUUACCUGGUA, the self-cleavage amounted to 0.169.

With GUGCUCUUUCACGUGCGCGCGAAAGAGAGAAGUGAACCAGAGAAACACACGUUGUGGUAUAUUACCUGGUA, the self-cleavage was found to be 0.302.

GUUCUCUUUCACGUGCGCGUGAAAGAGAGAAGUGAACCAGAGAAACACACGGUGUGGUAUAUUACCUGGUA: the self-cleavage came out at 0.446.

On to GUUCUCUUUCACGUGCGCGUGAAAGAGAGAAGUGAACCAGAGAAACACACGCUGUGGUAUAUUACCUGGUA, for which the self-cleavage amounted to 0.611.

Take GUUCUCUUUCACGUGCGCGUGAAAGAGAUAAGUGAACCAGAGAAACACACGUUGUGGUAUAUUACCUGGUA: the self-cleavage was found to be 0.117.

GUUCUCUUUCACGUGCGCGUGAAAGAGACAAGUGAACCAGAGAAACACACGUUGUGGUAUAUUACCUGGUA: the self-cleavage was found to be 0.106.

Regarding GUGCUCUUUCACGUGCGCGUGAAAGAGAGAAGUGAACCAGAGAAACACACGUUGUGGCAUAUUACCUGGUA, the self-cleavage came to 0.311.

As to GUGCUCUUUCACGUGCGCGUGAAAGAGAGAAGUGAACCAGAGAAACACACGUUGUGGGAUAUUACCUGGUA, the self-cleavage turned out to be 0.0994.

With GUUCUCUUUCACGUGCGCGUGGAAGAGAGAAGUGAACCAGAGAAACACACGUUGUGGUAUAUUACCUGGUA, the self-cleavage worked out at 0.603.

As for GUUCUCUUUCACGUGCGCGUGCAAGAGAGAAGUGAACCAGAGAAACACACGUUGUGGUAUAUUACCUGGUA, the self-cleavage was 0.491.

As to GUCAUCUUUCACGUGCGCGUGACAGAGAGAAGUGAACCAGAGAAACACACGUUGUGGUAUAUUACCUGGUA, the self-cleavage was 0.222.

For GUCAUCUUUCACGUGCGCGUGCAAGAGAGAAGUGAACCAGAGAAACACACGUUGUGGUAUAUUACCUGGUA, the self-cleavage is 0.131.

As to GUCAUCUUUCACGUGCGCGUGGAAGAGAGAAGUGAACCAGAGAAACACACGUUGUGGUAUAUUACCUGGUA, the self-cleavage came to 0.222.

GUCAUCUUUCACGUGCGCGUGUAAGAGAGAAGUGAACCAGAGAAACACACGUUGUGGUAUAUUACCUGGUA: the self-cleavage is 0.22.

For the variant GUUCUCUUUCACGUGCGCGUGAAAGAGAGAAGUGAACCAGAGAAACACACGUUGUGGUAUAUUACCAGGUA, the self-cleavage worked out at 0.0952.

Regarding GUUCUCUUUCACGUGCGCGUGAAAGAGAGAAGUGAACCAGAGAAACACACGUUGUGGAAUAUUACCUGGUA, the self-cleavage is 0.257.

As to GUUCUCUUUCACGUGCGCGUGAAAGAGAGAAGUGAACCAGAGAGACACACGUUGUGGUAUAUUACCUGGUA, the self-cleavage was 0.254.

Consider GUUCUCUUUCACGUGCGCGUGAAAGAGAGAAGUGAACCAGAGAAACACACGUUAUGGUAUAUUACCUGGUA, for which the self-cleavage was 0.251.

Consider GUUCUCUUUCACGUGCGCGUGAAGGAGAGAAGUGAACCAGAGAAACACACGUUGUGGUAUAUUACCUGGUA, for which the self-cleavage came out at 0.494.

Take GUUCUCUUUCACGUGCGCGUGAAUGAGAGAAGUGAACCAGAGAAACACACGUUGUGGUAUAUUACCUGGUA: the self-cleavage was found to be 0.491.

With GUGCUCUUUCACGCGCGCGUGAAAGAGAGAAGUGAACCAGAGAAACACACGUUGUGGUAUAUUACCUGGUA, the self-cleavage came to 0.238.

GUUCUCUUUCACGUGCGCGUGAAAGAGAGAAGUGAACAAGAGAAACACACGUUGUGGUAUAUUACCUGGUA: the self-cleavage amounted to 0.106.

GUUCUCUUUCACGUGCGCGUGAAAGAAAGAAGUGAACCAGAGAAACACACGUUGUGGUAUAUUACCUGGUA: the self-cleavage stood at 0.187.

Regarding GUUCUCUUUCACGUGCGCGUGAAAGACAGAAGUGAACCAGAGAAACACACGUUGUGGUAUAUUACCUGGUA, the self-cleavage was 0.177.

As for GUUCUCUUUCACGUGCGCGUGAAAGAGAGAAGUGAACCAGACAAACACACGUUGUGGUAUAUUACCUGGUA, the self-cleavage was 0.218.

Turning to GUGCUCUCUCACGUGCGCGUGAAAGAGAGAAGUGAACCAGAGAAACACACGUUGUGGUAUAUUACCUGGUA, the self-cleavage was determined as 0.166.

Turning to GUUCUCUUGCACGUGCGCGUGAAAGAGAGAAGUGAACCAGAGAAACACACGUUGUGGUAUAUUACCUGGUA, the self-cleavage amounted to 0.337.

As for GUUCUCUUUCACGUGCGCGUGAAAGAGAGAAGUGAACCAGAGAAACACACGUGGUGGUAUAUUACCUGGUA, the self-cleavage turned out to be 0.517.

For the variant GUUCUCUUUCACGUGCGCGUGAAAGAGAGAAGUGAACCAGAGAAACACACGUUGCGGUAUAUUACCUGGUA, the self-cleavage is 0.153.

As to GUGCUCUUUCACGUGCGCGUGAAAGAGAGAAGUGAACCAGAGAAACACACGUUGUGGUAGAUUACCUGGUA, the self-cleavage was found to be 0.0943.

For the variant GUGCUCUUUCACGUGCGCGUGAAAGAGAGAAGUGAACCAGAGAAACACACGAUGUGGUAUAUUACCUGGUA, the self-cleavage worked out at 0.332.

As for GUUCUCUUUCACGUGAGCGUGAAAGAGAGAAGUGAACCAGAGAAACACACGUUGUGGUAUAUUACCUGGUA, the self-cleavage came out at 0.462.

With GUUCUCUUUCACGUGCGCGUGAAAGUGAGAAGUGAACCAGAGAAACACACGUUGUGGUAUAUUACCUGGUA, the self-cleavage amounted to 0.27.

On to GUGCCCUUUCACGUGCGCGUGAAAGAGAGAAGUGAACCAGAGAAACACACGUUGUGGUAUAUUACCUGGUA, for which the self-cleavage was found to be 0.132.

In the case of GUUCUCUUUCACGUGCGCGUGAAAGAGAGAAGUGAACCAGAGAAACACACGUUGUUGUAUAUUACCUGGUA, the self-cleavage came out at 0.0961.

As to GUUCUCUUUCACGUGCGCGUGAAAGAGAGAAGUGAACCAGAGAAACACACGUUGUCGUAUAUUACCUGGUA, the self-cleavage was 0.182.

On to GUUCUCUUUCACGUGCGCGUGAAAGAGAGAAGUGAACCAGAGAAACACACGUUGUGGUUUAUUACCUGGUA, for which the self-cleavage is 0.205.

In the case of GUGCUCUUGCACGUGCGCGUGAAAGAGAGAAGUGAACCAGAGAAACACACGUUGUGGUAUAUUACCUGGUA, the self-cleavage was 0.0419.

Regarding GUCAUCUUUCACGUGCGCGUGAAAGAGAGAAGUGAACCAGAGAAACACACGUUGUGGUAUAUUACCUGGUA, the self-cleavage was 0.218.

For GUUCUCUUUUACGUGCGCGUGAAAGAGAGAAGUGAACCAGAGAAACACACGUUGUGGUAUAUUACCUGGUA, the self-cleavage is 0.454.

Regarding GUUCUCUUUAACGUGCGCGUGAAAGAGAGAAGUGAACCAGAGAAACACACGUUGUGGUAUAUUACCUGGUA, the self-cleavage was determined as 0.276.

In the case of GUUCUCUUUCACGUGCGCGUGAAAGAGAGAAGUGAUCCAGAGAAACACACGUUGUGGUAUAUUACCUGGUA, the self-cleavage was 0.33.

Regarding GUUCUCUUUCACGUGCGCGUGAAAGAGAGAAGUGAACCAGAGAAACACACGUUGUGGUAUAUUACCUGGUG, the self-cleavage was determined as 0.653.

As for GUUCUCUUUCACGUGCGCGUGAAAGAGAGAAGUGAACCAGAGAAACACACGUUGUGGUAAAUUACCUGGUA, the self-cleavage amounted to 0.446.

On to GUUCUCUUUCACGUGCGCGUGAAAGAGAGAAGUGAACCAGAGCAACACACGUUGUGGUAUAUUACCUGGUA, for which the self-cleavage is 0.161.

As to GUGCUCUUUCACGUGCGCGUGAAAGAGAGAAGGGAACCAGAGAAACACACGUUGUGGUAUAUUACCUGGUA, the self-cleavage came to 0.156.

For the variant GUGCUCUUUCACGUGCGCGUGAAAGAGAGAAGCGAACCAGAGAAACACACGUUGUGGUAUAUUACCUGGUA, the self-cleavage worked out at 0.143.

Turning to GUUCUCUUUCACGUGCGCGUGAAAGAGAGAAGUGAACCAGAGAAAUACACGUUGUGGUAUAUUACCUGGUA, the self-cleavage was 0.151.

Take GUUCUCUUUCACGUGCGCCUGAAAGAGAGAAGUGAACCAGAGAAACACACGUUGUGGUAUAUUACCUGGUA: the self-cleavage was determined as 0.373.

Regarding GUUCUCUUUCACGUGCGCAUGAAAGAGAGAAGUGAACCAGAGAAACACACGUUGUGGUAUAUUACCUGGUA, the self-cleavage came to 0.443.

For GUUCUCAUUCACGUGCGCGUGAAAGAGAGAAGUGAACCAGAGAAACACACGUUGUGGUAUAUUACCUGGUA, the self-cleavage came out at 0.427.

As to GUUCUCUUUCACGUGCGCGUGAAAGAGAGAAGUGAACCAGAGAAACACUCGUUGUGGUAUAUUACCUGGUA, the self-cleavage was 0.214.

On to GUGCUCUUUCACGUGCGCGUGAAAGAGAGAAGUGAACCAGAGAAACACACGUUGUGGUAUAUUACCUGGGA, for which the self-cleavage is 0.272.

GUUCUCUUUCACGUGCGCGUGAAAGAGAGAAGUGAACCAGAGAAACACACGUUGUGGUAUAUUACCUGAUA: the self-cleavage worked out at 0.16.

As for GUUCUCUGUCACGUGCGCGUGAAAGAGAGAAGUGAACCAGAGAAACACACGUUGUGGUAUAUUACCUGGUA, the self-cleavage came to 0.245.

In the case of GUCAUCUUUCACGUGCGCGUGAACGAGAGAAGUGAACCAGAGAAACACACGUUGUGGUAUAUUACCUGGUA, the self-cleavage came to 0.137.

With GUUCUCUUUCACGUGCGCGUGAAAGAGGGAAGUGAACCAGAGAAACACACGUUGUGGUAUAUUACCUGGUA, the self-cleavage was found to be 0.554.

As to GUUCUCUUUCACGUGCGCGUGAAAGAGUGAAGUGAACCAGAGAAACACACGUUGUGGUAUAUUACCUGGUA, the self-cleavage came out at 0.582.

GUUCUCUUUCACGUGCGUGUGAAAGAGAGAAGUGAACCAGAGAAACACACGUUGUGGUAUAUUACCUGGUA: the self-cleavage was determined as 0.487.

For the variant GUUCUCUUUCACGUGCGCGUGAAAGAGAGAAGUGGACCAGAGAAACACACGUUGUGGUAUAUUACCUGGUA, the self-cleavage is 0.717.

With GUUCUCUUUCACGUGCGCGUGAAAGAGAGAAGUGAACCAGAGAAACACACGUUGUGGUAUAUUACAUGGUA, the self-cleavage amounted to 0.0858.

GUUCUCUUUCACGUGCGCGUGAAAGAGAGAAGUGAACCAGAGAAACACAUGUUGUGGUAUAUUACCUGGUA: the self-cleavage stood at 0.187.

Consider GUUCUCUUUCACGUGCGCGUGAAAGAGAGAAGUGAACCAGAGAAACACAGGUUGUGGUAUAUUACCUGGUA, for which the self-cleavage is 0.174.

On to GUGCUCGUUCACGUGCGCGUGAAAGAGAGAAGUGAACCAGAGAAACACACGUUGUGGUAUAUUACCUGGUA, for which the self-cleavage stood at 0.281.

Turning to GUUCUCUUUCAUGUGCGCGUGAAAGAGAGAAGUGAACCAGAGAAACACACGUUGUGGUAUAUUACCUGGUA, the self-cleavage was found to be 0.345.

GUUCUCUUUCACGCGCGCGUGAAAGAGAGAAGUGAACCAGAGAAACACACGUUGUGGUAUAUUACCUGGUA: the self-cleavage is 0.451.

As to GUUCUCUUUCACGAGCGCGUGAAAGAGAGAAGUGAACCAGAGAAACACACGUUGUGGUAUAUUACCUGGUA, the self-cleavage came out at 0.495.

As to GUUCUCUUUCACGUGCGCGUGAAAGAGAGAAGUCAACCAGAGAAACACACGUUGUGGUAUAUUACCUGGUA, the self-cleavage stood at 1.03.

With GUUCUCUUUCACGUGCGCGUGAAAGAGAGAAGUGAACCAGAGAAACACACGUUGUGGUAUAUUACCUAGUA, the self-cleavage was 0.183.

In the case of GUUCUCUUUCACGUGCGCGUGAAAGAGAGAAGUGAACCAGAGAAACACACGUUGUGGUAUAUUCCCUGGUA, the self-cleavage was determined as 0.0981.

Regarding GUUCUCUUUCACGUGCGCGUGAAAGAGAGAAGUGAACCAGAGAAACACACGUUGUGGUAUAUUUCCUGGUA, the self-cleavage was 0.238.

Regarding GUUCGCUUUCACGUGCGCGUGAAAGAGAGAAGUGAACCAGAGAAACACACGUUGUGGUAUAUUACCUGGUA, the self-cleavage was determined as 0.318.

For the variant GUUCUCUUUCACGUCCGCGUGAAAGAGAGAAGUGAACCAGAGAAACACACGUUGUGGUAUAUUACCUGGUA, the self-cleavage is 0.727.

Regarding GUUCUCUUUCACGUGCGCGUGAAAGAGAGAAGUGAACCAGAGAAACACACGUUGUGGUAUACUACCUGGUA, the self-cleavage came to 0.23.

For GUUCUCUUUCACGUGCGCGUGAAAGAGAGAAGUGAACCAGAGAAACACACAUUGUGGUAUAUUACCUGGUA, the self-cleavage was determined as 0.467.
